Columns and labels:
[1] = substrate: Nc1ncnc2c1ncn2[C@@H]1O[C@H](COP(=O)(O)OP(=O)(O)OP(=O)(O)O)[C@@H](O)[C@H]1O; experiment: purified protein; format: biochemical, Deinococcus murrayi; settings: ssDNA-dependent (80-nt oligonucleotide, 12.16 μM nucleotides), 11.56 mM MgCl2, 20 mM Tris-HCl pH 7.5, 37 °C, Hill fit, n 1.1
[2] = substrate: Nc1ncnc2c1ncn2[C@H]1C[C@H](O)[C@@H](COP(=O)(O)OP(=O)(O)OP(=O)(O)O)O1; experiment: purified protein; format: biochemical, Deinococcus murrayi; settings: ssDNA-dependent (80-nt oligonucleotide, 12.16 μM nucleotides), 11.56 mM MgCl2, 20 mM Tris-HCl pH 7.5, 37 °C, Hill fit, n 1.0

B1: DmuRecA (Deinococcus murrayi) (protein)
chain: MSKDNPKDFGTPSDSKERLKAIETAMTQIEKAFGKGSIMRLGAESKLDVQAVSTGSLSLDLALGVGGIPRGRITEIYGPESGGKTTLALSVIAQAQKAGGTCAFIDAEHALDPVYARSLGVNTDELLVSQPDNGEQRLEIMELLVRSGAIDVVVVDSVAALTPRAEIEGEMGDSLPGLQARLMSQALRKLTAILSKTGTAAIFINQVREKIGVMYGNPETTTGGRALKFYASVRLDVRKIGQPVKMGNDAVGNTVKVKTVKNKVAPPFKEVELTLMYGKGFDQLSDLVTLASDMDIIKKAGSFYSYGEDRLGQGKEKAIAYIAERPELEAEIRERVLSAIKEGRAGDVPGVASVPAVAE
notes: heterogeneous oligomers
In the case of B1, the Km [1] is reported as 310 ± 9 µM, the kcat [1] is reported as 0.13 ± 0.004 s⁻¹ and the kcat/Km [1] is reported as 430 ± 18 M⁻¹ s⁻¹. For the same protein, the Km [2] was 280 ± 7 µM, the kcat [2] was 0.14 ± 0.004 s⁻¹ and the kcat/Km [2] was 500 ± 25 M⁻¹ s⁻¹.
